Read-outs that look alike come from different tables or passages of the source. Marks after values point to notes of the source that are not given here.
Columns and labels:
[1] = test system: anesthetized, hyperglycemic rats; assay: Blood glucose levels; type: in vivo, rat; conditions: nose drops, 2 units of insulin, mean +/- SEM, n=3-6; for Blood Glucose AUC 0-180: trapezoidal rule
[2] = rat, in vivo
[3] = rat, in vivo; remark: listed apart in the source
[4] = test system: cells that line the nasal cavity; conditions: 0.125% TDM, ref Arnold et al., 2004; cited from earlier work
[5] = Plasma insulin levels after nasal administration of insulin nose drops; conditions: rats, 2 units of insulin, with 0.125% TDM, human insulin RIA, mean +/- SEM, n = 3-6
[6] = with 0.125% TDM, basal glucose 303 to 393 mg/dl

Compound	Blood Glucose at 60 minutes after Insulin administration [1, 6]	Blood Glucose AUC 0-180 [1, 6]	Plasma Insulin AUC 0-180 [2]	Plasma Insulin C-max [2]	Plasma Insulin T-max [2] [min]	Absorption of insulin from the nasal cavity (in words) [3]	Toxicity to the cells that line the nasal cavity [4]	Blood Glucose AUC 0-180 ([1]; without TDM (0%)) [mg·min/dL]	Blood Glucose at 60 minutes after Insulin administration ([1]; without TDM (0%), upper limit of glucometer = 600 mg/dL)	Plasma Insulin C-max [5]	Plasma Insulin AUC 0-180 ([5]; up to 180 minutes, trapezoidal rule)
Glargine Insulin	183 +/- 26 ^a mg/dL	36345 +/- 3600 ^a mg/dL × minutes	67170 +/- 4800 ^a, ^b uU/ml × minutes	500 +/- 52 ^a, ^b uU/ml	60	absorbed from the nasal cavity	–	–	–	–	–
Aspart Insulin	205 +/- 13 ^a, ^b mg/dL	–	55238 +/- 4600 ^a, ^b uU/ml × minutes	–	15	absorbed from the nasal cavity	–	–	–	–	–
CCCCCCCCCCCCCCO[C@@H]1O[C@H](CO)[C@@H](O[C@H]2O[C@H](CO)[C@@H](O)[C@H](O)[C@H]2O)[C@H](O)[C@H]1O [TDM, tetradecyl-β-D-maltoside]	–	–	–	–	–	–	minimal toxicity	–	–	–	–
Regular Insulin: regular insulin (Novolin R®), Novo Nordisk	135 +/- 22 ^a mg/dL	32745 +/- 2400 ^a mg/dL × minutes	–	–	–	–	–	93728 ± 2600	600 +/- 10 ^** mg/dL	874 +/- 56 ^a uU/ml	33398 +/- 2500 ^a uU/ml × minutes
Lispro Insulin	160 +/- 27 ^a mg/dL	39863 +/- 3200 ^a mg/dL × minutes	41820 +/- 3300 ^a uU/ml × minutes	–	15	–	–	–	–	–	–
